From article PMC10097392, “Ligand Installation to Polymeric Micelles for Pediatric Brain Tumor Targeting” (Polymers, 2023)

B1: Cy5-labeled DBCO-CD276Ab (DBCO-CD276Ab-Cy5) (antibody, V domains shown)
VH: QVQLQQSGAELVKPGASVKLSCKASGYTFTNYDINWVRQRPEQGLEWIGWIFPGDGSTQYNEKFKGKATLTTDTSSSTAYMQLSRLTSEDSAVYFCARQTTATWFAYWGQGTLVTVSA
VL: DIVMTQSPATLSVTPGDRVSLSCRASQSISDYLHWYQQKSHESPRLLIKYASQSISGIPSRFSGSGSGSDFTLSINSVEPEDVGVYYCQNGHSFPLTFGAGTKLELK
notes: as in m1: constant region of the IgG heavy chain as far as it is not in PDB 5CMA; m1 chemically modified: DBCO-PEG4-NHS fed at 0.25 eq. to primary amines, then Cy5-NHS ester; also called the fabricated antibody; source: CD276Ab from Expi CHO cells, conjugated with DBCO-PEG4-NHS and Cy5-NHS ester, purified (Protein G HP SpinTrap)
B2: anti-CD276 antibody (CD276Ab), 8H9 antibody, IgG (antibody, V domains shown)
VH: B1 VH
VL: B1 VL
notes: heavy chain of 8H9; constant region of the IgG heavy chain as far as it is not in PDB 5CMA; light chain of 8H9; IgG; the fabrication scheme is said to be in the Supplementary Materials; also called 'as prepared' CD276Ab; source: Expi CHO cells, co-transfected with heavy and light chain vectors, purified from supernatant (rProtein A Sepharose, SEC)

Target: T1, CD276/B7-H3 (Homo sapiens (endogenous on DAOY …, UniProt Q5ZPR3))
T1 construct: CD276/B7-H3, transmembrane protein, endogenous on medulloblastoma patient-derived DAOY cells; source: endogenous, on GFP-expressing DAOY (HTB-186) medulloblastoma cells
Assay: immunostaining of cells or tissue; inhibition assay on live GFP-expressing DAOY cells: CD276Ab at 0, 12.5, 25.0, 50.0 and 100 ug/mL for 1 h at 37 °C, washed, then DBCO-CD276Ab-Cy5 (30.0 ug/mL) for 1 h at 37 °C; Cy5 fluorescence within cells by confocal laser scanning microscopy
Settings: one partner purified

T1 sequence (Q5ZPR3 29-534): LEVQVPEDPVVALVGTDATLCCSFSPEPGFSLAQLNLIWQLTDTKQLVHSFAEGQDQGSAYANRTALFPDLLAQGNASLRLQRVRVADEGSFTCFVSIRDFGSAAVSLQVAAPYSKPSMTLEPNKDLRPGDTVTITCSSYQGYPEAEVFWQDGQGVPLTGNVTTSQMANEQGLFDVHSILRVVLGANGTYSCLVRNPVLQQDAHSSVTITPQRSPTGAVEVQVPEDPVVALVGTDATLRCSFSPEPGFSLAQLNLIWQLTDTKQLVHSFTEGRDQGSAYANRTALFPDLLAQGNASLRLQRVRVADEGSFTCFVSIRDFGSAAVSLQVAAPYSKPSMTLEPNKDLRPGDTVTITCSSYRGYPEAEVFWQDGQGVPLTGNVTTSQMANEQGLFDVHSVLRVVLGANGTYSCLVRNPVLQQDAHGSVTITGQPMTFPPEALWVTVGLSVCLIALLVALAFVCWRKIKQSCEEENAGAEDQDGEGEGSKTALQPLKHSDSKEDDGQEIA

| binding result | Binder |
| --- | --- |
| binds | B1 |
| binds | B2 |
